In paper PMC3830641 (Biochemistry, 2013):
Residue numbers refer to the chain shown, from its start. Names may count otherwise.

B1: EL368, LOV-histidine kinase from Erythrobacter litoralis HTCC2594 (enzyme, UniProt Q2NCA3 1-360, looked up)
chain: MPLKGEISAQAGREFDTSRLDLRAIIDPRDLRVDPTRLFLETTQQTRLAICISDPHQPDCPVVYVNQAFLDLTGYAREEIVGRNCRFLQGADTDPEQVRKLREGIAAERYTVVDLLNYRKDGIPFWNAVHVGPIYGEDGTLQYFYGSQWDITDIVAERRKAETQRRIAAELRHRTGNIFAVLNAIIGLTSRRERDVSEFADKLSERVSALASAHRMTIMDEPDQEAVAIDDLVTGVMKPYRNRFAERVTTSGPKIELGPRSVTALGLALHELATNAVKYGALSVDAGRVEISWSREDGDVTLVWQEQGGPTVSQEQSEPVKGNGTMLIDGMIASLTGSIERDFAAAGLQAKITLPVHQPE
B2: EL362, LOV-histidine kinase from Erythrobacter litoralis HTCC2594 (wild type, Arg 150) (enzyme, UniProt Q2N9L9 1-362, looked up)
chain: MDDQPTTRANRVGHPESSRQAYSSESGATHGSLAFPGASGLLFEQAMAQTRMAVCLTDPHQPDHPIVFCNAAFERLTGYEEKDIIGRNCRFLQGARTDESQVARIRDALAKEEVAVVELLNYRKDGSTFWNALHLGPIYDESGKLKYFFRSQWDVTDIHEARAEQRHAKAMAREVSHRLKNVFSVIAGIVNITGRSMDARPVASRINERVQALGRAYEPTLDEAFMGTIEVGQAIRAILAPYDPEGDRVSLEGNGVRTEPNAISSIGLTLHELASNAIKYGALSNETGTIDVSWHHERDDHDRRRLVIDWKESGGPTIEGPPETGGTGFDISETLLSYSNGTLEKRWDRDGLFVRIAIPIEQ
B3: EL362(R150G) (enzyme, Erythrobacter litoralis HTCC2594, UniProt Q2N9L9 1-362, looked up)
chain: B2 chain with R150G

Assays:
[1] = target: anti-σ factor (ELI_10225) from Erythrobacter litoralis HTCC2594 (Erythrobacter litoralis HTCC2594) (UniProt Q2N854); test: SEC-MALS
SEC-MALS = target: the molecule itself; test: SEC-MALS

Molecule	binding result (SEC-MALS)	also measured
phospho-EL_PhyR (EL_PhyR phosphorylated by EL368 and ATP) (from UniProt Q2N856 1-266) (natural protein)		stoichiometry N [1]: 1
B1		stoichiometry N (SEC-MALS): 2
B2	binds	
B3	binds	
